Test results published in patent US12514920B1, “Respiratory syncytial virus mRNA vaccine, and preparation method therefor and use thereof” (Hangzhou Tianlong Pharmaceutical Co., Ltd., priority 2024, dated 2026).

Assays:
[1] = tested on: RSV pre-F antibody (3C12); assay: Binding of epitope Φ of RSV F antigen mutants by flow cytometry; conditions: for RSV pre-F antibody (3C12) Epitope Φ (%): binding rate, 293T cells 16 h after mRNA-LNP transfection; for Φ/II (%): ratio of epitope Φ (3C12) to epitope II (11A9) binding rate
Description: (§1) To investigate whether the RSV F antigen mutants have pre-fusion epitopes, an RSV pre-F antibody (3C12) (specifically binding to the RSV pre-F epitope […]) and an RSV F antibody (11A9) (binding to pre-F and post-F epitopes II) were detected by flow cytometry in this example, and RSV F protein mutants in the pre-F conformation were expected to bind to the antibodies tested.
(§2) • 293T cells (purchased from ATCC cell bank); RSV pre-F antibody (3C12), epitope […] (Novoprotein, Cat. No.: DA101); RSV F antibody (11A9), epitope II (Novoprotein, Cat. No.: DA091); • experimental groups: mRNA vaccines corresponding to the expressed antigens in Example 3;
(§3) • (1) Cell transfection: 293T cells were seeded at 1.3×10^5 cells/well in a 24-well plate. The next day, mRNA-LNP samples (containing 300 ng of mRNA) were added directly to the cells, and the mixture was uniformly mixed. • (2) Cell collection: The cells were taken out of the incubator after 16 h of transfection, the medium was pipetted off, 500 μL of 0.1% BSA solution was pipetted to wash the medium remaining in the well plate, taking care not to resuspend the cells, and the 0.1% BSA solution was pipetted off. 500 μL of 0.1% BSA solution was added to each well, and the cells were pipetted and transferred to a 1.5 mL centrifuge tube. • (3) Centrifugation: The cells were harvested by centrifugation at 400 g for 5 min at 4° C. in the dark, and the supernatant was discarded. • (4) Straining: 50.6 μL of RSV fluorescent antibody diluent was added to each of the control sample and the test samples to resuspend the cells, and the samples were incubated at 4° C. for 2 h in the dark. • (5) Cleaning: After the incubation was completed, 500 μL of 0.1% BSA solution was added to each tube, the cells were harvested by centrifugation at 400 g for 5 min at 4° C. in the dark, and the supernatant was discarded. This operation was repeated three times. • (6) Resuspension of cells: 200 μL of 0.1% BSA solution was added to each sample, and the cells were carefully pipetted to prepare a cell suspension. • (7) Detection on flow cytometer: The […] of RSV F mutants to antibodies were measured using flow cytometry, with 1×10^4 cells detected in each measurement.
(§4) The RSV pre-F antibody (3C12) used in this example specifically binds to the RSV pre-F epitope Φ, and the RSV F antibody (11A9) binds to the pre-F and post-F epitopes II. Whether the pre-fusion conformations of the RSV F mutants are stable can be further determined by detecting the binding of the epitope Φ and the epitope II on the mutants to corresponding epitopes of antibodies 3C12 and 11A9, respectively, by flow cytometry.

[2] = tested on: RSV F antibody (11A9); assay: Binding of epitope II of RSV F antigen mutants by flow cytometry; conditions: for RSV F antibody (11A9) Epitope II (%): binding rate, 293T cells 16 h after mRNA-LNP transfection
Description: as §1, §2, §3, §4

[3] = tested on: RSV pre-F antibody (3C12); format: physicochemical; conditions: ELISA binding to 3C12; for Stress resistance parameter, Osmotic pressure (mM) 3000: high osmotic pressure 3000 mM; for Stress resistance parameter, Osmotic pressure (mM) 3000 / Stress resistance parameter, Osmotic pressure (mM) 10: room temperature; for Stress resistance parameter, Osmotic pressure (mM) 3000 / Stress resistance parameter, Osmotic pressure (mM) 10 / Stress resistance parameter, pH 3.5 / Stress resistance parameter, pH 10: 60 min; for Stress resistance parameter, Temperature (° C.) 50: incubation at 50° C. for 60 min; for Stress resistance parameter, Osmotic pressure (mM) 10: low osmotic pressure 10 mM; for Stress resistance parameter, pH 3.5: pH 3.5, room temperature; for Stress resistance parameter, pH 10: pH 10, room temperature; for Stress resistance parameter, Temperature (° C.) 4: storage at 4° C. for one week
Description: To investigate the stability of the RSV F antigen mutants under different pH, temperature, osmotic pressure and other conditions, the mutants were subjected to stress tests under different treatment conditions in this example.
• 293T cells (purchased from ATCC cell bank); • Primary antibody: RSV pre-F antibody (3C12), epitope Φ (purchased from Suzhou Novoprotein Scientific Co., Ltd. (hereinafter referred to as Novoprotein), Cat. No.: DA101); • Standard: RSV pre-F trimer protein (Novoprotein, Cat. No.: DRA230); • Secondary antibody: peroxidase AffiniPure goat anti-human IgG (H+L) (purchased from Yeasen Biotechnology (Shanghai) Co., Ltd. (hereinafter referred to as Yeasen), Cat. No.: N/A); • Experimental group: mRNA vaccines after screening in Example 4;
Coating: A 96-well microplate was coated with a working solution and incubated at 2 to 8° C. for 16 to 20 h.
Plate washing: Phosphate buffered saline PBST was added to each well, and the plate was washed 5 times using a plate washer and patted dry on absorbent paper.
Blocking: After a blocking solution was added, the […] were placed on a constant temperature microplate shaker and incubated at 400 rpm for 1.5 h at 37° C.
Plate washing: PBST was added to each well, and the plate was washed 5 times using a plate washer and patted dry on absorbent paper.
Primary antibody incubation: A primary antibody dilution was added to each well, and the plate was sealed with a sealing film, and then incubated at 400 rpm for 1.5 h at 37° C.
Secondary antibody incubation: A secondary antibody dilution was added to each well, and the plate was sealed with a sealing film, and then incubated at 400 rpm for 45 min at 37° C.
Color development: A chromogenic solution was added, and the plate was sealed with a sealing film, and then placed on a constant temperature microplate shaker and incubated at 400 rpm for 25 min at 37° C.
Reaction stopping: After the color development was completed, a stop buffer was added at […] to the microplate to stop the reaction.
Plate reading: Absorbance values (OD values) were read within 5 min using a multimode microplate reader, with dual wavelengths of 450 nm and 630 nm set.
In this example, stability screening of the mutants through different treatment conditions was defined as a stress test, including storage at 4° C. for one week; incubation at 50° C. for 60 min; treatment at room temperature under low osmotic pressure and high osmotic pressure conditions for 60 min; treatment at room temperature under acid and base conditions for 60 min. The binding of the mutants to the RSV pre-F antibody (3C12) recognizing the epitope Φ was detected by ELISA.

Molecule | RSV pre-F antibody (3C12) Epitope Φ (%) ([1]; flow cytometry) | RSV pre-F antibody (3C12) Epitope Φ (%) binding rate ([1]; flow cytometry, epitope Φ, antibody 3C12) | Φ/II (%) [1] | RSV F antibody (11A9) Epitope II (%) [2] | RSV F antibody (11A9) Epitope II (%) binding rate ([2]; epitope II, antibody 11A9) | Stress resistance parameter, Osmotic pressure (mM) 3000 [3] | Stress resistance parameter, Temperature (° C.) 50 [3] | Stress resistance parameter, Osmotic pressure (mM) 10 [3] | Stress resistance parameter, pH 3.5 [3] | Stress resistance parameter, pH 10 [3] | Stress resistance parameter, Temperature (° C.) 4 [3]
RSVA2 (138251)-wt: wild sequence of RSV A2 F protein, full length (1 to 574 aa) [reference compound] | 1.0% | 1.0% | 4.3% | 23.1% | 23.1% |  |  |  |  |  | 
YK-RSV-005 (protein) QNITEEFYQSTCSAVSKGYLGALRTGWYTSVITIELSNIKENKCNGTDAKVKLIKQELDKYKNAVTDLQLLMQSTPATGSGSAICSGVAVCKVLHLEGEVNKIKSALLSTNKAVVSLSNGVSVLTIKVLDLKNYIDKQLLPIVNKQSCSISPIETVIEFQQKNNRLLEITREFSVNAGVTTPVSTYMLTNSELLSLINDMPITNDQKKLMSNNVQIVRQQSYSIMCIIKEEVLAYVVQLPLYGVIDTPCWKLHTSPLCTTNTKEGSNICLTRTDRGWYCDNAGSVSFFPQAETCKVQSNRVFCDTMNSRTLPSEVNLCNVDIFNPKYDCKIMTSKTDVSSSVITSLGAIVSCYGKTKCTASNKNRGIIKTFSNGCDYVSNKGVDTVSVGNTLYCVNKQEGQSLYVKGEPIINFYDPLVFPSSEFDASISQVNEKINQSLAFIRKSDELLHNVNAGKSTTNIMITTIIIVIIVILLSLIAVGLLLY |  |  | 96.2% |  |  | 0.47 ± 0.08 | 0.44 ± 0.06 | 0.57 ± 0.00 | 0.64 ± 0.20 | 0.88 ± 0.14 | 0.55 ± 0.09
YK-RSV-017 (protein) QNITEEFYQSTCSAVSKGYLGALRTGWYTCVILIELSNIKENKCNGTDAKVKLIKQELDKYKNAVTDLQLLMQSTPATGSGSAICSGVAVSKVLHLEGEVNKIKSALLSTNKAVVSLSNGVSVCTFKVLDLKNYIDKQLLPIVNKQSCSIPNIETVIEFQQKNNRLLEITREFSVNAGVTTPVSTYMLTNSELLSLINDMPITNDQKKLMSNNVQIVRQQSYSIMSIIKEEVLAYVVQLPLYGVIDTPCWKLHTSPLCTTNTKEGSNICLTRTDRGWYCDNAGSVSFFPQAETCKVQSNRVFCDTMNSRTLPSEVNLCNVDIFNPKYDCKIMTSKTDVSSSVITSLGAIVSCYGKTKCTASNKNRGIIKTFSNGCDYVSNKGVDTVSVGNTLYCVNKQEGQSLYVKGEPIINFYDPLVFPSSEFDASISQVNEKINQSLAFIRKSDELLHNVNAGKSTTNIMITTIIIVIIVILLSLIAVGLLLY |  |  | 96.5% |  |  | 0.46 ± 0.06 | 0.60 ± 0.04 | 0.59 ± 0.03 | 0.76 ± 0.11 | 0.93 ± 0.06 | 0.35 ± 0.07
YK-RSV-014 (protein) QNITEEFYCSTCSAVSKGYLGALRTGWYTSVITIELSNIKENKCNGTDAKVKLIKQELDKYKNAVTDLQLLMQSTPATGSGSAICSGVAVSKVLHLEGEVNKIKSALLSTNKAVVSLSNGVSVLTIKVLDLKNYIDKQLLPIVNKQSCSIPNIETVIEFQQKNNRLLEITREFSVNAGVTTPVSTYMLTNSELLSLINDMPITNDQKKLMSNNVQIVRQQSYSIMSIIKEEVLAYVVQLPLYGVIDTPCWKLHTSPLCTTNTKEGSNICLTRTDRGWYCDNAGSVSFFPQAETCKVQSNRVFCDTMNSRTLPSEVNLCNVDIFNPKYDCKIMTSKTDVSSSVITSLGAIVSCYGKTKCTASNKNRGIIKTFSNGCDYVSNKGVDTVSVGNTLYCVNKQEGQSLYVKCEPIINFYDPLVFPSSEFDASISQVNEKINQSLAFIRKSDELLHNVNAGKSTTNIMITTIIIVIIVILLSLIAVGLLLY | 0.0% |  | 0.0% | 0.1% |  |  |  |  |  |  | 
YK-RSV-038 (protein) QNITEEFYQSTCSAVSKGYLGALRTGWYTCVITIELSNIKENKCNGTDAKVKLIKQELDKYKNAVTDLQLLMQSTPATGSGSAIASGVAVSKVLHLEGEVNKIKSALLSTNKAVVSLSNGVCVLTFKVLDLKNYIDKQLLPILNKQSCSIPNIETVIEFQQKNNRLLEITREFSVNAGVTTPVSTYMLTNSELLSLINDMPITNDQKKLMSNNVQIVRQQSYSIMSIIKEEVLAYVVQLPLYGVIDTPCWKLHTSPLCTTNTKEGSNICLTRTDRGWYCDNAGSVSFFPQAETCKVQSNRVFCDTMNSRTLPSEVNLCNVDIFNPKYDCKIMTSKTDVSSSVITSLGAIVSCYGKTKCTASNKNRGIIKTFSNGCDYVSNKGVDTVSVGNTLYYVNKQEGQSLYVKGEPIINFYDPLVFPSDEFDASISQVNEKINQSLAFIRKSDELLHNVNAGKSTTNIMITTIIIVIIVILLSLIAVGLLLY |  |  | 94.8% |  |  | 0.55 ± 0.13 | 0.70 ± 0.10 | 0.74 ± 0.08 | 0.88 ± 0.17 | 0.82 ± 0.26 | 0.32 ± 0.08
YK-RSV-056 (protein) QNITEEFYQSTCSAVSKGYLGALRTGWYTSVITIELSNIKENKCNGTDAKVKLIKQELDKYKNAVTDLQLLMQSTPATGSGSCIASGVAVSKVLHLEGEVNKIKSALLSTNKAVVSLSNGVSVLTFKVLDLKNYIDKQLLPILNKQSCSIPNIETVIEFQQKNNRLLEITREFSVNAGVTTPVSTYMLTNSELLSLINDMPITNDQKKLMSNNVQIVRQQSYCIMSIIKEEVLAYVVQLPLYGVIDTPCWKLHTSPLCTTNTKEGSNICLTRTDRGWYCDNAGSVSFFPQAETCKVQSNRVFCDTMNSRTLPSEVNLCNVDIFNPKYDCKIMTSKTDVSSSVITSLGAIVSCYGKTKCTASNKNRGIIKTFSNGCDYVSNKGVDTVSVGNTLYYVNKQEGQSLYVKGEPIINFYDPLVFPSDEFDASISQVNEKINQSLAFIRKSDELLHNVNAGKSTTNIMITTIIIVIIVILLSLIAVGLLLY |  |  | 97.4% |  |  | 0.44 ± 0.08 | 0.91 ± 0.09 | 0.82 ± 0.07 | 0.64 ± 0.12 | 0.72 ± 0.14 | 0.69 ± 0.10
